Experimental data from the nanobody polyreactivity screen of Harvey et al. (2022).

test: yeast display, Sf9 membrane polyspecificity reagent, FACS + sequencing; frameworks hold sequencing errors
Procedure, shortened: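 Using colony PCR, genes from sorted yeast display clones were amplified, then sequenced on MiSeq at 2 × 250 and filtered by CDR length. The clones had been stained with 10% biotinylated, detergent-solubilized Sf9 membrane reagent for 1 hour at 4 °C and sorted by FACS into low and high (top ~1%) gates on anti-HA and streptavidin fluorescence. Polyreactivity labels come from the gate of origin.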

Row | Sequence | polyreactivity (PSR sort gate)
1 | QVQLVESGGGLVQAVGSLRLSCAACGRILWYYTMGWYRQAPAKERELVAAISGRGSSTYYADSVKGRFTISRDNAKNTVYLQMNSLKPEDTAVYYCNAALRTRRGDYDYWGQGTQVTVSS | high polyreactivity
2 | QVQLVESGGGLVQAVGSLRLSCAASGFTFGRYAMGWYIQAPAKEREFVASISARGGNTFYADSVKGRFTISRDNAKNTVYLQMNSLKPEDTAVYYCNAYYLAEYDYWGQGTQVTVSS | high polyreactivity
3 | QVQLVESGGGLVQAVGSLRLSCAASGLTFYIYVMGCYRQAPGKERELVAAISGSGGSTYYADSVKGRFTISRDNAKNTVYLHLNSLKLEDTALYYCNAEDWWRYLRGEDDYWGQGTQVTVSS | high polyreactivity
4 | QVQLVESGGGLVQAVGSLRLSCAASGRIFPYYAMGWYSQAPGKERELVAVFTIGGNSYYADSVKGRFTMSRDNAKNTVYLQMNSLKPEDTAVYYCAASAYSYYRFDYWGQGTQVTVSS | low polyreactivity
5 | QVQLVESGGGLVQAVGSLRLSCAASGRTFNLYAMGWYRQAPGKERELVAAITRRGGRTYYADSVKGRFTISRDNAKNTVYLQMNSLKPEDTAVYYCAARGYYGKFSGSGYWGQGTQVTVSS | high polyreactivity
6 | QVQLVESGGGLVQAVGSLRLSCAASGSILVTYMGWYRPAPGKEREVVAAISYTGGSTYYADSVKGRFTISRDNAKNSVYLQMNSLKPEDTEVFYCASFYLASETYYYFYWPKDSDDYCGQGTQVTVSS | low polyreactivity
7 | QVQLVESGGGLVQAVGSLRLSCAASGSTFHWYDMGWYRQAPGKERELVPGINSSGDGTYYADSVKGRFTISRDNAKNTVYLQMNSLKPEDTAVYDCAAPWWYYGVPYQTNKYDYWGQGTQVTLSS | low polyreactivity
8 | QVQLVESGGGLVQAVGSLRLSCAASGSTFPRYAMRWYRQAPGKERELVAAISRSGGSTYYADSVKGRFTISRDNATNTVYLQMNSLKPEDTAVYYCAARDDRGSYKYDYWRQGTQVTVSS | high polyreactivity
9 | QVQLVESGGGLVQAVGSLRLSCAASGSTFPYYTMGWYRQAPGKERELVAAITASGGSTYYADSVKGRVTISRDNAKNTVYLQMNSLKPEDTAVYYCAATCLNHVRKSRGYDYWGQGTQVTVSS | high polyreactivity
10 | QVQLVESGGGLVQAVGSLRLSCAASGSTFYPYAMGWYRQSPGKERELVAAISISGGITYYADSVKVRFTISRDNAKNTVYLQMNSLKPEDTAVYYCAAEYLAVSGYWYDYWGQGTQVTVSS | high polyreactivity
11 | QVQLVESGGGLVQAVGSLRLSCADSGTFPYYAMGRYRQAPWKERELVAAITRSGTRTYYADSVKGRFTISRDNAKNTGYLQMKSLKPEDTAVYYCAARQTGFSSQFRGYYSWGQGTQVTVSS | high polyreactivity
12 | QVQLVESGGGLVQAVGSLRLSSAASGSIFYVYAMGWYRQAPGKERELVAAMTNYADSVKGRFTISRDNAKNTVYLQMNSLKPEDTAVYYCAADWWRVEMDYWGQGTQVTVSS | low polyreactivity
13 | QVQLVESGGGLVQAVGSLRLTCAASGSIFGHYAMGLSRHAPGKDRELVAAISASTGRTYNADSVKGRFTISRDNAKNPVYLQMNSLKPEDTAFYYCAVRVHWTIWDYYYWGQGTQVTVSS | high polyreactivity
14 | QVQLVESGGGLVQAVSSLRLSCAASGYIFDRNAMGWYRRAPGKERELVAAITKRGGITYYADSVKGRFTISRDNAKNTVYLQMNSLKPEDTAVYYCAAKTLYNSGTQDRAMGYWGQGTQVTVSS | high polyreactivity
15 | QVQLVESGGGLVQEGGSLLLSCDASGFTFAVYAMGWYRQAPGKERELVAAITTSGTRTYNADSVKGRFTISRDNAKNTVYLQMNSLKPEDTAVYYCAAVVFRQWPEFDYWGQGTQVTVSS | low polyreactivity
16 | QVQLVESGGGLVQEGGSLLLSFAASGSTFGYYAMGWYRQAPGKEREFVAAISDSGDGTYYADSVKGRFTISRDNEKNTVYLQMNSLKQEDTAVYYCAAEAPYYFGWWYGYKYDSWGQGTQVTVSW | high polyreactivity
17 | QVQLVESGGGLVQEGGSLRLICAASGFTFGAHGMGWYRQAPGKERELVAANNSRGSRTYYADSGKGRFTISRDNPKNTVFFQMNSLQPDDTAVYYCAADYYAFKFGRFDYWGHGTQVTVSS | high polyreactivity
18 | QVQLVESGGGLVQEGGSLRLICAASGRIFRYYAMGWYRQAPGKERELVASITYSGGRTNYADSVKGRFTISRDNAKNTVYVQMNSLKPEDTAVYYCNAAYVYYYPHYRYAPTAVDYDYWGQGTQVTVSS | low polyreactivity
19 | QVQLVESGGGLVQEGGSLRLRCAASGRTFPINAMGWYRQAPGKERELVASIRWTDGTTYYADSVKGRFTISRDTAKNTVYLQMNSLKPEDTAVYYCAADAEGSASKYVYWGQGTQVTVSS | low polyreactivity
20 | QVQLVESGGGLVQEGGSLRLSCAAAGIIFIAYAMGWYREAPGKERELVADISIGGSTNYADSVKGRFTISRDNAKNTVYLQMTSQKPEDTAVYYCNAGGGFYGSTVEHDYWGQGTQVSVSS | low polyreactivity
21 | QVQLVESGGGLVQEGGSLRLSCAASGFIFYRYTKGWYRQAPGKERELVAGISSRGTRTYYADSVKGRFTISRDNAKNTVYLQMNSLKPEDNAVYYCAKVDGSKRYNYWGQGTQVTVSS | high polyreactivity
22 | QVQLVESGGGLVQEGGSLRLSCAASGFTFDDYAMGWYRQAPGKERELVATITNSDSSTYYADSVKGRFTISRDNEKNTFYLQMNSLQPVDTAVYYCAADGRYAYGYNHWGHGTQVTVSS | low polyreactivity

Row | Sequence | polyreactivity (PSR sort gate)
23 | QVQLVESGGGLVQEGGSLRLSCAASGFTYYHYAMGWYRHAPGKERELVAAITWSGGDTYYADSVKGRFTISRDNAKNTVYLQMNSLKPDDTAVYYCNADDPPGARYFDSFDYRGDYWGQGTQVTVSS | low polyreactivity
24 | QVQLVESGGGLVQEGGSLRLSCAASGIIFGPYVMGWYRQAPGKERELVATISRTGDTYYADSVKGRFTISRDNAKNTVYLQMNSVKPEDTAVYYCNTQDHGYGFTMDYWGQGTQVTVSS | low polyreactivity
25 | QVQLVESGGGLVQEGGSLRLSCAASGIIHYYYVMGWYRPAPGKERELVAAINRSGTATYYADSVKGRFTISRDNAKNTVYFQMNSLIPEDTAVYYCAADVRWRYYWGQGTQVTVSS | high polyreactivity
26 | QVQLVESGGGLVQEGGSLRLSCAASGITFGRYAMGWYRQAPGKERELVAAITTRGGSTYYADSVKGRFTISRDNAKNTVYLQMNSLKPEDTAVYYCAARVPGVSVKNDYCGQGTQVTVSS | high polyreactivity
27 | QVQLVESGGGLVQEGGSLRLSCAASGITFSYYAMGWYREAPGKEREWVATIRSSGGSTYYADSVKGRFTISRENAKNTVYLQMNSQKPEDTAVYYCAVRLWFDYNYWGQGTQVTVSS | low polyreactivity
28 | QVQLVESGGGLVQEGGSLRLSCAASGNIFRAYGMGWYRQAPGKERELVAAIDTTGGRTYYADSVKGRFTISRDNAKNTVYLQMNSLKPEDTAVYYCAVRAPAYPYYRGFDYWGQGTQVTVSS | low polyreactivity
29 | QVQLVESGGGLVQEGGSLRLSCAASGNIFRINGMGWYRQAPGKERELVATITGNGGSTYYAASVKGRFTISRDNAQNTVYLQMNSLKPEDTAVFYCAAQTTVYIYDYWGQGTQVTVSS | low polyreactivity
30 | QVQLVESGGGLVQEGGSLRLSCAASGRIFVGNAMGWYRQAPGKERELVASMTRGRRTNYADSVKGRFTISRDNAKNTVFFQMNSLKPVDTAVYYCNAPGVTRAYLVGYDYWGQGTQVTVSS | low polyreactivity
31 | QVQLVESGGGLVQEGGSLRLSCAASGRIFYFYAMGRYRQAPGKERELVADIDWSGDSTYYADSVKGRFTISRDNAKITVYLQMNSLIPEDTAVYYCNAAYYYYSTSYTYDYWGQGTQVTVSS | low polyreactivity
32 | QVQLVESGGGLVQEGGSLRLSCAASGRILSPNAMGWYRQAPGKERELVATITRSGGSTYYADSVKGRFTISRDNAKNTVYLQMNSLKPEDTAVYYCAKLHTYPWIHDYWGQGTQVTVSS | low polyreactivity
33 | QVQLVESGGGLVQEGGSLRLSCAASGSIFAKYAMGWYSQAPGKEREFVAGISYSGNTYYADSVKGRFTISRDNAKNTVYLQMNSLKPEDTAVYYCAADGYLQTRRFDYWGQGTQVTVSS | high polyreactivity
34 | QVQLVESGGGLVQEGGSLRLSCAASGSIFGRNVMGWYRQAPGKERELVAAISEGGGRTYYADSVKGRFTISRDNAKNTVYLQMNSLKPEVTAVYYCAAAYFSSGYKYYYWGQGTQVTVSS | high polyreactivity
35 | QVQLVESGGGLVQEGGSLRLSCAASGSIFKEYAMGWSRQAPGKERELVAAISTSGDITYYSDSVKGRFTISRDNAKNTVYLQMNSLKPEDTGVYYCAANYSLLRQYNRLDYWGQGTQLTVSS | low polyreactivity
36 | QVQLVESGGGLVQEGGSLRLSCAASGSIFNTYAMGRYRQAPGKEREMVAGITKTGSRTYYADSVKGRFTISRDNAKNTVYLQMNSLKPEDTAVYYCNARIWPRSYRYDYWGQGTQVTVSS | high polyreactivity
37 | QVQLVESGGGLVQEGGSLRLSCAASGSTFPLYTMGWYRQAPGKERELVATISRGGSTYYADSVKGRFTISRDNAKNTVYLQMNSLKPEDTAVYYCAARPFGFKFDYWGQGTQVTVSA | low polyreactivity
38 | QVQLVESGGGLVQEGGSLRLSCAASGSTFSNYMGWYRQAPGKERELVAAITQSGVSTYYADSVKGRFTISRDNAKNTVYLQMNSLKPEDTAVYYCYNYLSGYDYWGQGTQVTVSS | low polyreactivity
39 | QVQLVESGGGLVQEGGSLRLSCAASGSTFYNYAMGLYRQAPGKERELVAAITSSGGSTYYADSVKGRFTISRDYAKNTVYLQMNSLKPEDTAVYYCNADDGYGQVHSISNYEMDYWGQGTQVTVSS | low polyreactivity
40 | QVQLVESGGGLVQEGGSLRLSCAASGSTFYYYAMGWYRQAPGKERELVAAISSSGSTYYADSVKGRFTISRDNAKNTVYLQMISLNPEDTAVFYCNADSRTAGLNSEYDYWGQGTQVTVSS | low polyreactivity
41 | QVQLVESGGGLVQEGGSLRLSCAASGSTSRKYTMGWYRQAPGKERELVATISWSGGSTNYADSVKGRFTISRDNAKNNVYLQMNSLIPEDTAVYYCNAYVSPRYRGTRYYYWGQVTQVTVSS | high polyreactivity
42 | QVQLVESGGGLVQEGGSLRLSCAASGYIFVRYAMGWYRQAPGKEREFVAAISSSGGSTRYADSVKGRFTISRDNAKYTVYLQMHRLKPEDTPVYYCAATSVARNGSPMYYWGQGTLVTVSS | high polyreactivity
43 | QVQLVESGGGLVQEGGSLRLSCASSGFIFEDYAKGWYRQARGKERELVAAMRSNDDSTYYADSVKGRFTISRDNAKNSVYFQMNSLKPEDTAVYYCAAATYGTRLRRYYYWGQGSQVTVSS | high polyreactivity
